Assay results reported in publication PMC2112927.

Molecular target: rabbit skeletal muscle F-actin (rabbit), P68135
Experiment: nanosecond emission anisotropy
Conditions: remark: other sources report otherwise

rotational correlation time: > 400 ns
B1: IAENS-labeled Dictyostelium severin, P10733 1-362 (natural protein)
chain: MIKNRKLDITSTNVAGIGTDLDKKCRLDAASTEAQWKGVGQAPGLKIWRIENFKVVPVPESSYGKFYDGDSYIILHTFKEGNSLKHDIHFFLGTFTTQDEAGTAAYKTVELDDFLGGAPIQYRQCQSYESPSFLSLFPKYFILSGGVESGFNHVKPTEYKPRLLHISGDKNAKVAEVPLATSSLNSGDCFLLDAGLTIYQFNGSKSSPQEKNKAAEVARAIDAERKGLPKVEVFCETDSDIPAEFWKLLGGKGAIAAKHETAPTKSEKVLYKLSDASGSLKFSEVSRGKINKSSLKSEDVFIIDLGNEIYTWIGSKSSPNEKKTAFSHATQYLVNNKRCEYTPIVRVLENGTNQSFETLLSA
modifications: here or on the partner: one to two IAENS molecules attached to the protein (residues not stated)
